# According to US20150216933A1, “HEMATOPOIETIC STEM CELL GROWTH FACTOR” (DUKE UNIVERSITY, priority 2008, published 2015):
# B1: PTN: Pleiotrophin, heparin binding growth factor; recombinant human PTN purchased from R&D systems (protein, UniProt P21246 33-168, looked up)
# Pleiotrophin: GKKEKPEKKVKKSDCGEWQWSVCVPTSGDCGLGTREGTRTGAECKQTMKTQRCKIPCNWKKQFGAECKYQFQAWGECDLNTALKTRTGSLKRALHNAECQKTVTISKPCGKLTKPKPQAESKKKKKEGKKQEKMLD
# Key:
# 34−KSL cells = test: Competitive repopulating assay at 4 weeks (Example 1); assay type: in vivo, mouse; conditions: lineage repopulation in transplanted mice
# Description: 34^−KSL cells from B6.SJL mice, carrying the CD45.1 allele, were sorted into 96-well U-bottomplates (BD) containing IMDM+10% FBS+1% pcn/strp. Day 0 34^−KSL cells were either isolated for injection into recipient animals, or placed into cultures containing TSF, TSF+recombinant PTN, co-culture with HUBECs+goat IgG, or HUBECs+goat anti-PTN. Recipient C57BL6 animals, expressing the CD45.2 allele, received an LD100/30 dose of 950 cGy total body irradiation (TBI) using a Cs137 irradiator and then transplanted via tail vein injection with 10, 30 or 100 34^−KSL cells or their progeny following culture. A rescue dose of 1×10^5 non-irradiated CD45.2 MNCs were co-injected into recipient mice. Multi-lineage hematologic reconstitution was monitored in the peripheral blood (PB) by flow cytometry, as previously described, at 4, 8, 12, and 24 weeks posttransplant. PB was collected via submandibular puncture; cells were treated with RBC lysis buffer (Sigma-Aldrich), and washed twice prior to staining with FITC- or PE-CD45.1, FITC-CD45.2, PE-anti-Thy 1.2, APC-anti-B220, APC-anti-Ter-119, or PE-anti-Mac-1 and PE-anti-Gr1. Animals were considered to be engrafted if donor CD45.1 cells were present at >1% for all lineages (Zhang et al, Nat. Med. 12:240-245 (2006)).
# For the competitive repopulating assays, recipient CD45. […]
# [1] = system: long-term repopulating HSCs; test: Secondary competitive repopulating transplant assay; assay type: in vivo, mouse
# Method: Secondary competitive transplant assays were performed using whole BM harvested from primary CD45. 2^+ mice at 24 weeks following transplantation with either CD45. 1^+ BM 34^−KSL cells or the progeny of 34^−KSL cells following culture with TSF alone or TSF+PTN. Secondary recipient CD45. 2^+ C57Bl6 mice were irradiated with 950 cGy TBI and PB analysis of donor cell engraftment was performed at 12 weeks post-transplantation in secondary mice.
# In order to confirm that PTN caused the amplification of long-term repopulating HSCs with serial repopulating capacity, secondary transplants were performed. Importantly, secondary CD45.
# GFI-1 = test: qRT-PCR of KSL cells after culture with TSF+PTN; assay type: cell-based, mouse; conditions: TSF+100 ng/mL PTN x 7 days vs TSF alone
# Method: (§1) FIGS. 7A and 7B. […] (FIG. 7B) BM KSL cells were placed in culture with TSF (black bars) or TSF+100 ng/mL PTN (gray bars)×7 days and KSL cells were then isolated via FACS-sorting at day +7 for qRT-PCR analysis and comparison of gene expression. […] All comparisons were one tailed t tests.
# (§2) RT-PCR analyses of PTN in ECs and HES-1, GFI-1 and PTEN in BM KSL cells and FACS-sorted KSL cells following culture were performed using a 2-step RTPCR reaction as previously described (Chute et al, Proc Natl Acad Sci USA 103, 11707-12 (2006)). Conditioned medium (CM) was generated from HUBECs and non-brain ECs as previously described (Chute et al, Blood 100:4433-9 (2002), Chute et al, Blood 105: 576-83 (2005)) and ELISA for PTN was performed following manufacturer's guidelines.
# (§3) In order to determine a potential mechanism through which PTN mediates HSC expansion, an examination was made as to whether PTN altered pathways that are known to be affected by RPTPβ/ζ (Meng et al, Proc Natl Acad Sci USA 97: 2603-8 (2000), Stoica et al, J Biol Chem 276:16772-9 (2001), Landgraf et al, J Biol Chem 283:25036-45 (2008), Deuel et al, Arch Biochem Biophys 397:162-71 (2002)). Canonical PTN signaling occurs via binding and inactivation of RPTPβ/ζ (Meng et al, Proc Natl Acad Sci USA 97: 2603-8 (2000)), which can facilitate the tyrosine phosphorylation of several intracellular substrates, including Akt and β-catenin (Souttou et al, J Biol Chem 272:19588-93 (1997), Gu et al, FEBS Lett 581:382-8 (2007)). […] BM 34^− KSL cells were treated with TSF with and without 100 ng/mL PTN in the presence and absence of 10 μM wortmannin, a PI 3-kinase inhibitor (Souttou et al, J Biol Chem 272:19588-93 (1997)).
# HES-1 = test: qRT-PCR of KSL cells after culture with TSF+PTN; assay type: cell-based, mouse; conditions: TSF+100 ng/mL PTN x 7 days vs TSF alone
# Method: as §1, §2, §3
# PTEN = test: qRT-PCR of KSL cells after culture with TSF+PTN; assay type: cell-based, mouse; conditions: HSCs following PTN exposure
# Method: as §1, §2, §3
# β-catenin = β-catenin assays; assay type: cell-based, mouse; conditions: 34−KSL cells treated with PTN (data not shown)
# Description: as §3
# [2] = system: BM stem and progenitor cells; test: In vivo PTN study in mice irradiated with 700 cGy TBI; design: species or system mouse; conditions: 2 μg PTN intraperitoneally daily x 7 days, day +7
# Method: Adult B6.SJL mice received a single fraction of 700 cGy TBI and were then treated either with PBS (saline) or 2 μg PTN intraperitoneally daily ×7 days (beginning 4 hours post irradiation). At day +7, the mice were sacrificed and total viable BM cells were quantified. Flow cytometric analysis was performed to estimate the percentage of BM KSL cells in each femur (Chute at al, Blood 109:2365-72 (2007), Salter et al, Blood 113:2104-7 (2009)). Colony forming cell (CFC) assays were performed using MethoCult M3434 media (Stem Cell Technologies, Vancouver, BC) as previously described (Chute et al, Blood 109:2365-72 (2007), Salter et al, Blood 113:2104-7 (2009)). Long-term cultureinitiating cell (LTC-IC) assays were performed as follows: Murine M2-10B4 (ATCC CRL-1972) BM stromal cells were plated in a 24 well dish and irradiated with 1500 cGy. Limiting dilutions (45,000, 90,000, and 180,000) of BM MNCs from irradiated mice that were treated with either PTN or PBS were added to the stromal cell layers and maintained in MyeloCult M5300 media (Stem Cell Technologies) with weekly half-medium changes for 4 weeks. At 4 weeks, the non-adherent and adherent cells (15,000 cells/dish) were collected and plated into 3×35 mm dishes (MethoCult, StemCell Technologies). After two weeks, hematopoietic colonies were counted and scored.
# Since the addition of PTN was sufficient to induce HSC amplification in vitro a test was made as to whether administration of PTN could augment BM HSC regeneration in vivo following injury.
molecule,measurement,setting,value
B1,multilineage differentiation potential of HSCs,34−KSL cells,did not alter the normal multilineage differentiation potential
same,multilineage differentiation in secondary mice,[1]; 12 weeks,normal multilineage differentiation
same,"CD45.1+ cell engraftment in secondary mice, fold higher vs 34−KSL cell group or TSF alone group","[1]; 12 weeks post-transplant, BM harvested at 24 weeks from primary recipients",> 10 fold
same,GFI-1 expression,GFI-1,upregulation
same,HES-1 expression,HES-1,upregulation
same,expression of PTEN,PTEN,down-modulated
same,activated form of β-catenin,β-catenin,no increase
same,increase in BM colony forming cells (CFCs),[2],2.9 fold
same,increase in long-term culture-initiating cells (LTC-ICs) / BM HSC content,[2],11 fold
same,increase in primitive BM KSL cells compared to controls,[2],5.6 fold
same,increase in total BM cells compared to controls,[2],2.3 fold
